In US6835814 (Eli Lilly, dated 2004):

T1: FLINT (FAS Ligand Inhibitory Protein), mature human FLINT (human, UniProt O95407 30-300)
T1 construct: also called mature FLINT
T1 sequence: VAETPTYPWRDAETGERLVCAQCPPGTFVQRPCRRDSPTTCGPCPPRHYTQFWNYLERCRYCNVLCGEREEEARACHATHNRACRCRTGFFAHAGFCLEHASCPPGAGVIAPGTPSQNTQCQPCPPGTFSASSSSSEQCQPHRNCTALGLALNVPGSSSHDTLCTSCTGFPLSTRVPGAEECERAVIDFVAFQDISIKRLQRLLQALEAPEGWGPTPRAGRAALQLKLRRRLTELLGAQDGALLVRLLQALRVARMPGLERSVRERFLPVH

B1: Fas/Fc chimera (R&D Systems) (Fc fusion, UniProt P25445 26-173, looked up)
chain: QVTDINSKGLELRKTVTTVETQNLEGLHHDGQFCHKPCPPGERKARDCTVNGDEPDCVPCQEGKEYTDKAHFSSKCRRCRLCDEGHGLEVEINCTRTQNTKCRCKPNFFCNSTVCEHCDPCTKCEHGIIKECTLTSNTKCKEEGSRSN
notes: The result line prints only 'Fas'; also called Pas/Fc chimera; Fc part of the bought chimera not given; not described
B2: FasLigand (monomer) (ligand, UniProt P48023 103-281, looked up)
chain: QLFHLQKELAELRESTSQMHTASSLEKQIGHPSPPPEKKELRKVAHLTGKSNSRSMPLEWEDTYGIVLLSGVKYKKGGLVINETGLYFVYSKVYFRGQSCNNLPLSHKVYMRNSKYPQDLVMMEGKMMSYCTTGQMWARSSYLGAVFNLTSADHLYVNVSELSLVNFEESQTFFGLYKL
notes: Immobilized on a CM5 chip by amine coupling and printed as 'FasLigand (monomer)'; also called Fas Ligand (Kamiya Biomedical Company)

Assays:
FasLigand (monomer) = biological target: B2; assay: SPR (Biacore 2000), FasLigand immobilized on CM5 chip, Fas in solution
Procedure: (§1) FasL or the FLINT analog are immobilized through their primary amine group on lysine residues onto carboxymethyldextran polymer attached to a gold surface (Sensor Chip CM5). Immobilization is carried out using the amine coupling kit (Biacore) according to the manufacturer's protocol. Briefly, 100 µl of either FasL or FLINT analog solutions (10–25 µg/ml in sodium acetate buffer 20 mM, pH 5.0) is loaded onto an activated CM5 chip. After coupling, excess reactive groups on the surface are deactivated with 1M ethanolamine hydrochloride pH 8.5. The chip is then washed with a sodium acetate buffer 20 mM, pH 5.0 to remove non-covalently bound material.
(§2) To analyze the interaction between FasL and FLINT analogs, solutions containing the FLINT analogs are passed over the chip with PasL immobilized thereon. The amount of the FLINT analog associated with FasL is determined by measuring the surface plasmon resonance signal (in responce units, RU). Typically, FLINT analog solutions at different concentrations in HBS-ET buffer are loaded on the sensor chip for 10 minutes at a flow rate of 5 µl/min. […]
(§3) The data is evaluated and binding parameters determined using BIA evaluation 3.0.2 software (Biacore). The Kd for the interaction between FLINT and FasL and between FasL and Fas was determined using the protocols described above.

[1] = biological target: T1, FLINT (FAS Ligand Inhibitory Protein), …; assay: SPR (Biacore 2000), FasLigand immobilized on CM5 chip, FLINT in solution
Procedure: as §1, §2, §3

Row | Kd (FasLigand (monomer)) [nM] | Kd [1] [nM] | Binder
1 | 162 |  | B1
2 |  | 113 | B2
